Biological target: T1, 6×His-SlmA (E. coli), P0C093
T1 chain: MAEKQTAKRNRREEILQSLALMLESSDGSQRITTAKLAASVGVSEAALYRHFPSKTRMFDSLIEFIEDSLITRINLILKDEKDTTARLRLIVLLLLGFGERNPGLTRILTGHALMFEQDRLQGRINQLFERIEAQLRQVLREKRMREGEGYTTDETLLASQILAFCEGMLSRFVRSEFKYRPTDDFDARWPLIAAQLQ
Assay: BLI; biotinylated SBS17-30mer (50 nM) on streptavidin tips, loaded with 4 µM SlmA or SlmA mutant; FtsZ or variants (4 µM, preincubated with 1 mM GDP) or peptides (up to 320 µM) in solution; 1× Pol buffer, room temperature
Conditions: remark: other sources report otherwise

Kd: 81 µM
Binder: DYLDIPAFLRKQAD [FtsZ C-terminal tail peptide (Ztail-WT)]

Source: PMC4117426
